Reference: patent US20240026004A1

How the values were obtained:
[1] = biological target: human TGF-β1 (human) (UniProt P01137); assay: ELISA, TGF-β1 coated at 0.5 µg/ml, HRP anti-human IgG detection, OD450
[2] = biological target: human TGF-β3 (human) (UniProt P10600); assay: ELISA, TGF-β3 coated at 0.5 µg/ml, HRP anti-human IgG detection, OD450
[3] = biological target: human PD-L1 on CHO-K1 cells (human) (UniProt Q9NZQ7); assay: flow cytometry on CHO-K1 cells overexpressing human PD-L1, PE anti-human IgG detection, median fluorescence intensity
Sequence of human PD-L1 on CHO-K1 cells (human) (Q9NZQ7 19-290): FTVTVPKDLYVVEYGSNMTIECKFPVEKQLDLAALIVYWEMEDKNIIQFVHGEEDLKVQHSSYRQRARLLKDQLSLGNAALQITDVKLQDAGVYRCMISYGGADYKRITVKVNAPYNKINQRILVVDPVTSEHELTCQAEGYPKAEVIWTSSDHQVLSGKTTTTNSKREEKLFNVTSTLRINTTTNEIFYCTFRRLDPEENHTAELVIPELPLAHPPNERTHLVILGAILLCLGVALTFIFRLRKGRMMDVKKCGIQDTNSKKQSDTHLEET

[4] = biological target: human PD-L1 on CHO-K1 cells (human) (UniProt Q9NZQ7); assay: dual-target flow cytometry: sample pre-mixed with 3 µg/ml human TGF-β1, then CHO-K1 cells overexpressing human PD-L1, detection with PE anti-human TGF-β1 antibody (signal needs PD-L1 and TGF-β1 bound at once)

Sequence of human TGF-β3 (human) (P10600 301-412 limits assumed): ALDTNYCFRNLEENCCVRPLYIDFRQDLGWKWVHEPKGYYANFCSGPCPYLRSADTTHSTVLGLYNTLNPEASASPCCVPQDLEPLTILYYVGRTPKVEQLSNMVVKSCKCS
Sequence of human TGF-β1 (human) (P01137 279-390 limits assumed): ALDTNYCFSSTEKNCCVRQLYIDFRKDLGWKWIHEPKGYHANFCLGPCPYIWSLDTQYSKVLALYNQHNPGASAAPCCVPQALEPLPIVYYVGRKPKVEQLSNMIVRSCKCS

EC50 [1]: 598 pM
EC50 [2]: 1120 pM
EC50 [3]: 1430 pM
EC50 [4]: 788 pM
Substance: 900544 (control drug M7824 from Merck, expressed in-house) (bispecific antibody)
